Consider three molecules from patent US20240254227A1 (Alector, published 2024).

Positions count from the first letter of the chain named.

The target in assay [1] is T1, murine CD300LB stably expressed on Jurkat cells (mouse, UniProt Q3U497 18-209).
T1 construct: also called muCD300LB; mouse CD300LB
T1 sequence: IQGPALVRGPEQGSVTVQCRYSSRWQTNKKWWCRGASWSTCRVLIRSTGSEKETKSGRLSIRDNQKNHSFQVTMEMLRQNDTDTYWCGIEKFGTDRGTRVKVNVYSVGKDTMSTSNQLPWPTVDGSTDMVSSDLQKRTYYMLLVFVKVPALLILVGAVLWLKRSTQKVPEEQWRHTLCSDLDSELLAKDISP
Nature of the assay: flow cytometry, stable Jurkat cells.

The target in assay [2] is T1, murine CD300LB stably expressed on …. Nature of the assay: flow cytometry, stable Jurkat cells, supernatant or 10 ug/mL, isotype subtracted. As for the experimental part:
(§1) Purified anti-CD300LB antibodies of the present disclosure were also evaluated for species cross-reactivity to mouse and human CD300LB stably expressed in Jurkat cells (generation of which is described above). Cells were counted and labeled with 200 nM CFSE, 500 nM VioBlue, or a combination of the two to discriminate between human CD300LB, Parental cells and mouse CD300LB. Cells were washed thoroughly with PBS containing 2% fetal bovine serum then resuspended at a total of 240,000 cells per well. Hybridoma supernatants (100 L) or purified antibodies at 10 μg/mL were added and incubated for one hour before the cells were washed again and stained with an APC-labeled anti-human or anti-mouse secondary. Cells were then analyzed using a BD FACSCanto II. Antibodies were analyzed for binding to mouse or human CD300LB by FlowJo software by gating on live cells, then the APC gMFI calculated for each labeled population by subtraction of the gMFI of the appropriate isotype control.

The target of assay [3] is T2, recombinant human CD300LB overexpressed on Jurkat cells (human, UniProt A8K4G0 18-201).
T2 construct: also called huCD300LB; huCD300LB-expressing Jurkat cells
T2 sequence: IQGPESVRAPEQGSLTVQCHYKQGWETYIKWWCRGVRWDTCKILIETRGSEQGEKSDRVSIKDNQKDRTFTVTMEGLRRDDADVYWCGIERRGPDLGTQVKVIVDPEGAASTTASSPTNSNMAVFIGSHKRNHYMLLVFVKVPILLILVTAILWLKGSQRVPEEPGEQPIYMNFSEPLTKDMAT
The description is as above. The method, then:
as §1

For assay [4], the target named is T2, recombinant human CD300LB overexpressed …. Nature of the assay: flow cytometry on Jurkat cells overexpressing huCD300LB, apparent KD (Drake & Klakamp fit). As for the experimental part:
Purified anti-CD300LB antibodies of the present disclosure were evaluated for their binding affinity to either Jurkat cells overexpressing recombinant huCD300LB or BaF/3 cells overexpressing recombinant muCD300LB. Binding of anti-CD300LB antibodies to the cells was determined as follows. Cells were harvested, washed, and labeled with propidium iodide for viability discrimination. After washing the cells with PBS, 1×10⁵ cells were aliquoted per well in 96-well U-bottom plates and incubated with 100 μL of purified anti-CD300LB antibody at various concentrations in FACS buffer (PBS+2% FBS). After this primary incubation, the supernatant was removed via centrifugation, the cells washed twice with 150 μL of ice-cold FACS buffer, and then incubated with the appropriate secondary antibody on ice for 30 minutes. Following the secondary antibody incubation, the cells were again washed twice with ice-cold FACS buffer and resuspended in a final volume of 200 L FACS buffer. Flow cytometry analysis was then performed using the FACSCanto system (BD Biosciences).
To determine affinity, antibodies at increasing concentrations were used to stain Jurkat cells overexpressing huCD300LB and geometric MFI values measured by the flow cytometer were analyzed on Prism (Graphpad) software.

For assay [5], the target named is T3, huCD300LB-DAP12 fusion constitutively expressed on 293 Freestyle (Freestyle HEK) cells (human).
T3 construct: also called Human CD300LB-DAP12 chimera
Nature of the assay: flow cytometry, geometric mean (APC-A), FreeStyle HEK cells expressing huCD300LB. The method, then:
(§2) Other members of the human CD300 family share sequence homology with human CD300LB. Thus, counter screens against binding of the anti-CD300LB antibodies to huCD300A, huCD300C, huCD300LD, huCD300E, huCD300LF, and huCD300G by stable overexpression in Freestyle HEK cells (generation of which is described above) were performed as follows. Cells were counted and labeled with 200 nM CFSE, 500 nM VioBlue, or a combination of the two to discriminate between CD300LB, Parental cells, and the other CD300 family members. Cells were washed thoroughly with PBS containing 2% fetal bovine serum then resuspended at a total of 240,000 cells per well. Hybridoma supernatants (100 L) or purified antibodies at various concentrations were added and incubated for one hour before the cells were washed twice again and stained with an APC-labeled anti-human or anti-mouse secondary antibody. Cells were then analyzed using a BD FACSCanto II. Anti-CD300LB antibodies were analyzed for specific binding to human CD300LB by FlowJo software by gating on live cells, then the APC geometric mean fluorescence intensity (gMFI) calculated for each labeled population. The results are shown in […]
Background: In flow cytometry, cells or beads pass a laser one at a time.

For assay [6], the target named is T3, huCD300LB-DAP12 fusion constitutively …. Nature of the assay: flow cytometry, stable Freestyle HEK cells. The method, then: as §2
(§3) Freestyle HEK cells were transfected with huCD300A, huCD300C, huCD300D, huCD300E, and huCD300G separately. Then, five stable cell lines from these transfections were pooled; the combined cells are herein known as CD300A/C/D/E/G. Freestyle HEK cells were also transfected with huCD300LB and huCD300F. All transfected cells were then tested for binding of anti-CD300LB antibodies of the present disclosure.
Target sequence in this assay (chain, as listed by the source limits assumed): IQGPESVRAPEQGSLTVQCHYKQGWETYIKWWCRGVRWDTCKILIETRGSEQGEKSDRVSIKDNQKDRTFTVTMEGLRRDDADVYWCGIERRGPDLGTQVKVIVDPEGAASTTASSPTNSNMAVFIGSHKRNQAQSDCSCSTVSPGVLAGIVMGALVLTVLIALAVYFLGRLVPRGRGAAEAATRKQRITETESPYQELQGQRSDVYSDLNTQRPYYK

Assay [7] has as its target T4, human CD300LB transiently expressed on HEK293 cells (human, UniProt A8K4G0 18-201).
T4 construct: CD300LB expression constructs'; also called huCD300LB HEK293
T4 sequence: T2 sequence
Nature of the assay: flow cytometry, transfected HEK293, 10 ug/mL, isotype subtracted. The method, then:
In addition, supernatants or purified antibodies were tested for species crossreactivity by comparing the binding of human, mouse, and cynomolgous monkey CD300LB expressing cell lines. HEK293 were transfected with […] of human, mouse, and cyno CD300LB expression constructs using the Mirus system in 10 cm tissue culture dishes. Cells were then incubated for 24 hours in complete medium. Cells were harvested by incubation in TrypLE Express, then washed with PBS and labeled with 200 nM CFSE, 500 nM VioBlue, or a combination of the two to discriminate between human, mouse, and cyno CD300LB expressing cells. Cells were washed thoroughly with PBS containing 2% fetal bovine serum then resuspended at a total of 240,000 cells per well. Purified antibodies at 10 μg/mL were added and incubated for one hour before the cells were washed again and stained with an APC-labeled anti-human or anti-mouse secondary. Cells were then analyzed using a BD FACSCanto II. Antibodies were analyzed for specific binding to human, mouse, or cyno CD300LB by FlowJo software by gating on live cells, then the APC gMFI calculated for each labeled population minus the gMFI of the isotype control.

Assay [8] concerns the target T5, human CD300LB on primary human monocytes (human, UniProt A8K4G0 18-201).
T5 construct: Endogenous protein on primary cells; that the target is CD300LB is inferred from the antibodies being anti-CD300LB antibodies; also called Monocyte donor 1281; Monocyte donor 1282
T5 sequence: T2 sequence
Nature of the assay: flow cytometry, primary human monocytes donor 1283, 10 ug/mL antibody, isotype control subtracted. The method, then: (§4) Human monocytes from various donors were isolated from whole blood using RosetteSep Human Monocyte Enrichment Cocktail (Stemcell technologies) and Ficoll centrifugation per manufacturer protocols. After lysing red blood cells with ACK lysing buffer, monocytes were resuspended in complete media (RPMI, 10% FBS, Pen/Strep, L-glutamine, HEPES, non-essential amino acid, Sodium pyruvate). To obtain macrophages from these isolated monocytes, 100 ng/ml human M-CSF and 8% v/v human serum were added to the cells for 5-7 days. Cells were counted on the day of the experiment and plated at 100,000 cells per well in a round-bottom 96 well plate. Cells were incubated with TruStain Fc block and 10 μg/mL antibody for 1 hour on ice before washing with 250 μL ice cold PBS twice. Cells were then incubated with the appropriate APC-conjugated secondary antibodies for 20 minutes in the dark on ice. Finally, cells were washed twice with ice cold FACS buffer and then resuspended in 100 μL FACS buffer containing 1% propidium iodide. Samples were immediately analyzed using a BD FACSCanto flow cytometer. The gMFI was calculated using FlowJo software minus the gMFI of the appropriate isotype control.

Assay [9] has as its target T6, human CD300LB on primary human macrophages (human, UniProt A8K4G0 18-201).
T6 sequence: T2 sequence
Nature of the assay: flow cytometry, primary human macrophages donor 1278, 10 ug/mL antibody, isotype control subtracted. The method, then:
as §4

The target in assay [10] is T5, human CD300LB on primary human monocytes. Nature of the assay: flow cytometry, primary human monocytes donor 1281, 10 ug/mL antibody, isotype control subtracted. The method, then: as §4
The target of assay [11] is T6, human CD300LB on primary human …. Nature of the assay: flow cytometry, primary human macrophages donor 1277, 10 ug/mL antibody, isotype control subtracted. As for the experimental part: as §4
For assay [12] the target is unchanged. Nature of the assay: flow cytometry, primary human macrophages donor 1275, 10 ug/mL antibody, isotype control subtracted. The method, then: as §4
Assay [13] concerns the target T5, human CD300LB on primary human monocytes. Nature of the assay: flow cytometry, primary human monocytes donor 1284, 10 ug/mL antibody, isotype control subtracted. The method, then: as §4
Assay [14] addresses T7, huCD300F constitutively expressed on 293 Freestyle (Freestyle HEK) cells (human, UniProt Q8TDQ1 20-290).
T7 construct: also called huCD300LF; Human CD300F
T7 sequence: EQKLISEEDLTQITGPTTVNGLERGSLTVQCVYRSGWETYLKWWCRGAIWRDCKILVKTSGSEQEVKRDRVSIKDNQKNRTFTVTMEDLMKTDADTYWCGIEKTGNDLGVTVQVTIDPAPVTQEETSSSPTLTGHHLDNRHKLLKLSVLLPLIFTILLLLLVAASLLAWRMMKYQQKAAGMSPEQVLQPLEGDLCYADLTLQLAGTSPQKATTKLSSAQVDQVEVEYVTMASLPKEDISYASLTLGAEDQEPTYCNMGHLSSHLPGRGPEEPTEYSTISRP
Nature of the assay: flow cytometry, stable Freestyle HEK cells. As for the experimental part:
as §2, §3

Assay [15] concerns the target T5, human CD300LB on primary human monocytes. Nature of the assay: flow cytometry, primary human monocytes donor 1282, 10 ug/mL antibody, isotype control subtracted. As for the experimental part:
as §4

B1: anti-CD300LB antibody CD-04 (antibody, V domains shown)
VH: QVQLQQSGAELVRPGASVTLSCRASGYTFTDFEMHWVKQTPLHGLEWIGAIAPETGGTAYNQKFKGKAILTADKSSSTAYVELRSLTSEDSAVYFCTRLGGMDYWGQGTSVTVSS
VL: DVVMTQTPLSLPVSLGDQASISCRSSQTLVHNNGNTYLYWYLQKPGQSPKLLIYQVSNRFFGVPDRFSGSGSGTDFTLKISRVEAEDLGLYFCSQSTHVPWTFGGGTKLEIK
On to B1, for which the binding result is “no binding (tested: 10 ug/mL)” in assay [1] and “no binding” in assay [5]. Further, the gMFI in [2] is 18 gMFI; in assay [3] it was 193 gMFI; in assay [6] it was 190 gMFI; in assay [7], 207 gMFI. The Kd in assay [4] was 32 nM.

B2: anti-CD300LB antibody CD-09 (antibody, V domains shown)
VH: QVQLVQSGAEVKKPGASVKVSCKASGYTFTTYAVHWVRQAPGQGLEWMGIINPNSGGTNYAQKFQGRVTMTRDTSTSTVYMELSSLRSEDTAVYYCARDIVPMNNFYNYYYGMDVWGQGTTVTVSS
VL: DIQMTQSPSSLSASVGDRVTITCRASQSISSYLNWYQQKPGKAPKLLIYATSTLQSGVPSRFSGSGSGTDFTLTISSLQPEDFATYYCQQSYRIPYTFGQGTKVEIK
Turning to B2, the gMFI in assay [8] was found to be 2580 gMFI; in assay [9], 13300 gMFI; in assay [10], 1370 gMFI; in assay [11] it was 15700 gMFI; in [12] it was 19700 gMFI; in assay [13], 1040 gMFI. In addition, the gMFI amounted to 28 gMFI in assay [14], 37900 gMFI in assay [6], 445 gMFI in assay [7] and 3070 gMFI in [15]. The Kd in [4] was 109 nM. Further, the binding result in [14] is “no binding”.

B3: anti-CD300LB antibody CD-08 (antibody, V domains shown)
VH: EVQLLESGGGLVQPGGSLRLSCAASGFTFSNAWMSWVRQAPGKGLEWVSVISGSGGRTYYADSVKGRFTISRDNSKNTLYLQMNSLRAEDTAVYYCARDGTTVAPKGMDVWGQGTTVTVSS
VL: B2 VL with R24Q, S28D, S30N, S31N, L33V, T51A, T53N, R93S, I94P, V104L
With B3, the gMFI in assay [8] is 1920 gMFI; in assay [9], 135000 gMFI; in assay [10] it was 2970 gMFI; in assay [11], 2800 gMFI; in [12], 3580 gMFI; in [13], 1400 gMFI. Also, the gMFI in [14] was 212 gMFI; in assay [6], 56800 gMFI; in assay [7] it was 774 gMFI; in assay [15], 4470 gMFI. In assay [4], the Kd amounted to 45 nM. For the same molecule, the binding result in assay [14] was “no binding”.
